# Results reported in patent publication US20210196796A1 (SYNTHEKINE, published 2021).
# What was measured:
# [1] = target: T1, orthogonal hCD122 receptor (hoRb), hCD122 with H133D and Y134F (human, UniProt P14784 27-550); experiment: cell-based or functional assay
# T1 sequence: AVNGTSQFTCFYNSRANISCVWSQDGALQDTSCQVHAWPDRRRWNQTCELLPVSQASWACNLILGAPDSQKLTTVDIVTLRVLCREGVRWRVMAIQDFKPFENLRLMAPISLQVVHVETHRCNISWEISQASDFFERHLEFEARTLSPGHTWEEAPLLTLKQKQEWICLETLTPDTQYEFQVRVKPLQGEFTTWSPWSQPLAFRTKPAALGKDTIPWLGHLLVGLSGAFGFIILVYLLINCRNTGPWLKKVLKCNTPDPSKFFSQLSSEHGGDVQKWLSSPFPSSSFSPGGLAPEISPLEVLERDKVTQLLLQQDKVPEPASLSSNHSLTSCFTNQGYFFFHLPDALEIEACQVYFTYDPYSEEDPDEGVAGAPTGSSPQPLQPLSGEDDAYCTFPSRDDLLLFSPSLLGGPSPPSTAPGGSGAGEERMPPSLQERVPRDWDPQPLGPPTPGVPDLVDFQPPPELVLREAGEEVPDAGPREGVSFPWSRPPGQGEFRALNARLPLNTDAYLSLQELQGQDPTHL
# [2] = target: T1, orthogonal hCD122 receptor (hoRb), …; experiment: cell-based or functional assay; remark: listed apart in the source
# Wherever Relative Proliferation Fold Change 3F8 1:10 is given: reference of the scale not given here.
# Wherever Relative Proliferation Fold Change 3F8 1:2 is given: reference of the scale not given here.
# Wherever Relative Proliferation Fold Change 3F8 1:50 is given: reference of the scale not given here.
# Wherever Relative Proliferation Fold Change NKL 1:10 is given: reference of the scale not given here.
# Wherever Relative Proliferation Fold Change NKL 1:2 is given: reference of the scale not given here.
# Wherever Relative Proliferation Fold Change NKL 1:50 is given: reference of the scale not given here.
Binder,NKL Ortho Proliferation Signal 1:2 [1],NKL Ortho Proliferation Signal 1:10 [1],NKL Ortho Proliferation Signal 1:50 [1],Relative Proliferation Fold Change NKL 1:2 [1],Relative Proliferation Fold Change NKL 1:10 [1],Relative Proliferation Fold Change NKL 1:50 [1],3F8 Ortho Proliferation Signal 1:2 [2],3F8 Ortho Proliferation Signal 1:10 [2],3F8 Ortho Proliferation Signal 1:50 [2],Relative Proliferation Fold Change 3F8 1:2 [2],Relative Proliferation Fold Change 3F8 1:10 [2],Relative Proliferation Fold Change 3F8 1:50 [2]
SQVLMA (ligand) APTSSSTKKTQLQLSQLLVLLMAILNGINNYKNPKLTRMLTFKFYMPKKATELKHLQCLEEELKPLEEVLNLAQSKNFHLRPRDLISNINVIVLELKGSETTFMCEYADETATIVEFLNRWITFCQSIISTLT,20500,18600,11000,1.4 fold,1.07 fold,0.65 fold,20800 cts/min,11100 cts/min,3800 cts/min,63.3 fold,14.5 fold,5.92 fold
SQVLSA (ligand) APTSSSTKKTQLQLSQLLVLLSAILNGINNYKNPKLTRMLTFKFYMPKKATELKHLQCLEEELKPLEEVLNLAQSKNFHLRPRDLISNINVIVLELKGSETTFMCEYADETATIVEFLNRWITFCQSIISTLT,16000,13000,7840,2.1 fold,1.25 fold,0.77 fold,22000 cts/min,14500 cts/min,4060 cts/min,117 fold,23.9 fold,6 fold
SQVLIA (ligand) APTSSSTKKTQLQLSQLLVLLIAILNGINNYKNPKLTRMLTFKFYMPKKATELKHLQCLEEELKPLEEVLNLAQSKNFHLRPRDLISNINVIVLELKGSETTFMCEYADETATIVEFLNRWITFCQSIISTLT,13000,10700,6780,1.11 fold,0.78 fold,0.53 fold,18600 cts/min,10500 cts/min,3500 cts/min,0.45 fold,1.2 fold,0.77 fold
SQVLWA (ligand) APTSSSTKKTQLQLSQLLVLLWAILNGINNYKNPKLTRMLTFKFYMPKKATELKHLQCLEEELKPLEEVLNLAQSKNFHLRPRDLISNINVIVLELKGSETTFMCEYADETATIVEFLNRWITFCQSIISTLT,14000,11100,8870,1.14 fold,0.66 fold,0.54 fold,7840 cts/min,4470 cts/min,714 cts/min,14.6 fold,3.35 fold,0.92 fold
"SQVLYA, E116G (ligand) APTSSSTKKTQLQLSQLLVLLYAILNGINNYKNPKLTRMLTFKFYMPKKATELKHLQCLEEELKPLEEVLNLAQSKNFHLRPRDLISNINVIVLELKGSETTFMCEYADETATIVEFLNRWITFCQSIISTLT",13200,11600,8390,1.21 fold,0.83 fold,0.63 fold,12500 cts/min,8030 cts/min,2510 cts/min,29.7 fold,9.79 fold,2.73 fold
SQVLHA (ligand) APTSSSTKKTQLQLSQLLVLLHAILNGINNYKNPKLTRMLTFKFYMPKKATELKHLQCLEEELKPLEEVLNLAQSKNFHLRPRDLISNINVIVLELKGSETTFMCEYADETATIVEFLNRWITFCQSIISTLT,53000,26000,13300,3.46 fold,1.63 fold,0.87 fold,32600 cts/min,35100 cts/min,19100 cts/min,80.2 fold,56.4 fold,25.8 fold
SQVLVA (ligand) APTSSSTKKTQLQLSQLLVLLVAILNGINNYKNPKLTRMLTFKFYMPKKATELKHLQCLEEELKPLEEVLNLAQSKNFHLRPRDLISNINVIVLELKGSETTFMCEYADETATIVEFLNRWITFCQSIISTLT,10800,8600,6590,0.83 fold,0.62 fold,0.51 fold,8530 cts/min,5590 cts/min,1850 cts/min,20.2 fold,9.6 fold,2.1 fold
SQVLNA (ligand) APTSSSTKKTQLQLSQLLVLLNAILNGINNYKNPKLTRMLTFKFYMPKKATELKHLQCLEEELKPLEEVLNLAQSKNFHLRPRDLISNINVIVLELKGSETTFMCEYADETATIVEFLNRWITFCQSIISTLT,50600,36500,17300,4.55 fold,3 fold,1.4 fold,32600 cts/min,35100 cts/min,19100 cts/min,80.2 fold,56.4 fold,25.8 fold
SQVLRA (ligand) APTSSSTKKTQLQLSQLLVLLRAILNGINNYKNPKLTRMLTFKFYMPKKATELKHLQCLEEELKPLEEVLNLAQSKNFHLRPRDLISNINVIVLELKGSETTFMCEYADETATIVEFLNRWITFCQSIISTLT,60800,68400,34300,4.33 fold,4.06 fold,2.28 fold,33400 cts/min,32300 cts/min,19600 cts/min,43 fold,38.8 fold,30.2 fold
SQVLDA (ligand) APTSSSTKKTQLQLSQLLVLLDAILNGINNYKNPKLTRMLTFKFYMPKKATELKHLQCLEEELKPLEEVLNLAQSKNFHLRPRDLISNINVIVLELKGSETTFMCEYADETATIVEFLNRWITFCQSIISTLT,35100,22700,11600,2.55 fold,1.65 fold,0.95 fold,33400 cts/min,32300 cts/min,19600 cts/min,43 fold,38.8 fold,30.2 fold
